Reference: patent US20160266136A1 (Stanford University, published 2016)

Columns and labels:
mouse Gas6 [1] = target: T1, mouse Gas6 (mouse, UniProt Q61592 46-674, limits assumed); assay: KinExA
T1 construct: Used both for the KinExA value against mouse Gas6 and for the endogenous Gas6 in the serum of the nude mice; also called Gas6 (in serum of mice)
T1 sequence (looked up): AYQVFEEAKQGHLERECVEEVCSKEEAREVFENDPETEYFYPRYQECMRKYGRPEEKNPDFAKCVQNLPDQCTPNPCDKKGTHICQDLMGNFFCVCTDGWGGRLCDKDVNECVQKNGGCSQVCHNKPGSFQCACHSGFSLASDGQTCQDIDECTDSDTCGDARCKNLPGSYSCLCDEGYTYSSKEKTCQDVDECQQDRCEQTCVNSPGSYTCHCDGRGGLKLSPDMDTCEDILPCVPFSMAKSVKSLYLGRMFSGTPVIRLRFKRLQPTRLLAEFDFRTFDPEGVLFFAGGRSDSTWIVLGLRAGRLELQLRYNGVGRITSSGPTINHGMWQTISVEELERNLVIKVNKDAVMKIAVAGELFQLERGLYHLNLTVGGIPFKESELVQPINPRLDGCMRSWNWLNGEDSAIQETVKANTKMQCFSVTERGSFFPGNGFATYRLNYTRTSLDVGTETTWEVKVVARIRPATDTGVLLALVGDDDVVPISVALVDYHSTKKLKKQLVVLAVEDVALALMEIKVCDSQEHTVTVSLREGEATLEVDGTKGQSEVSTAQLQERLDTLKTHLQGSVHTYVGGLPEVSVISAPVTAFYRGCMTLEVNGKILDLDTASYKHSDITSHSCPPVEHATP
Description: (§1) A KinExA 3200 instrument (Sapidyne Instruments Inc.) was used to measure equilibrium binding and association rate constants for the Gas6-Axl interactions. […] Adsorption coating of 200 mg of beads was performed using 45 μg of protein at room temp for 1 h. The protein solution was then removed and beads were blocked using PBS with 1% BSA for 2 h at room temp. Beads were stored in blocking buffer at 4° C. and used within two weeks. All binding reactions were carried out in phosphate buffered saline with 1 mg/ml BSA and 0.02% sodium azide.
(§2) For equilibrium binding studies, three independent titrations were completed for each Axl Ig1 or Axl Fc fusion unless otherwise noted. […] Each sample was analyzed twice and data from the three independent equilibrium binding experiments were globally analyzed using n-curve analysis in the KinExA Pro 3.6.2 software (Sapidyne Instruments Inc.) to obtain the Kd value.

mouse Gas6 [2] = target: T1, mouse Gas6; assay: KinExA; column Kd(pM) mGas6
Description: as §1, §2

Protein S (OriGene) = target: T2, Protein S (OriGene) (UniProt P07225 42-676); assay: KinExA signal test on MYD1 Fc coated beads, Protein S probed with an anti-c-Myc antibody
T2 construct: Carries a c-Myc tag by the detection used
T2 sequence (looked up): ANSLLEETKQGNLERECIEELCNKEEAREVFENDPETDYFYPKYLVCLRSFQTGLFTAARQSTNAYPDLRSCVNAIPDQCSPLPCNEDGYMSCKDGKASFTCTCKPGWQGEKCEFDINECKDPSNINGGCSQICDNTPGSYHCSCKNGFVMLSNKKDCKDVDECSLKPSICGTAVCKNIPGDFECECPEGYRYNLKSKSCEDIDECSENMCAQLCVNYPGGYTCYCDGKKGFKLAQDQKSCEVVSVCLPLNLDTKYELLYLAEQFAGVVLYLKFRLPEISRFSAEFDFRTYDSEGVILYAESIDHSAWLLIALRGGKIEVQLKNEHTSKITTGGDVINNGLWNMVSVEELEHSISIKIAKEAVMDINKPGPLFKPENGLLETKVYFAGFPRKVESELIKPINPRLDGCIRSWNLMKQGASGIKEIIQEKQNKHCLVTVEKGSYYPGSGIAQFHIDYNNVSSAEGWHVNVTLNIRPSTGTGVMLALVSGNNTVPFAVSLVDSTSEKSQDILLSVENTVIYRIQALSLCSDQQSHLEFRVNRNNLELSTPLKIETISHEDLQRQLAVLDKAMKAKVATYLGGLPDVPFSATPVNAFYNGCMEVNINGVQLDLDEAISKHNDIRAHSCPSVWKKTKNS
Description: as §1
To test binding of Protein S (OriGene) to MYD1, 700 μl of a 10 nM solution was flowed over the capture beads.

B1: MYD1 Fc (Fc fusion)
chain: APRGTQAEESPFVSNPGNITGARGLTGTLRCQLQVQGEPPEVHWLRDGQILELADSTQTQVPLGEDEQGDWIVASQLRITSLQLSDTGQYQCLVFLGHQTFVSQPGYVRLEGLPYFLEEPEDRTVAANTPFNLSCQAQGPPEPVDLLWLQDAVPLATAPGHGPQRSLHVPGLNKTSSFSCEAHNAKGVTTSRTATITVLPQQPRNLHLVSRQPTELEVAWTPGLSGIYPLTHCTLQAVLSNDGMGIQAGEPDPPEEPLTSQASVPPHQLRLGSLHPHTPYHIRVACTSSQGPSSWTHWLPVETPEGVPLGPPENISATRNGSQAFVHWQEPRAPLQGTLLGYRLAYQGQDTPEVLMDIGLRQEVTLELQGDGSVSNLTVCVAAYTAAGDGPWSLPVPLEAWRPGQAQPVHQLVKEPSTPAFS
notes: Disulfide-linked dimer from HEK cells; also the capture reagent on the KinExA beads; also called MYD1 Fc fusion; not shown: Fc domain of a human IgG1
Kd (mouse Gas6 [1]): ~1 pM | Kd (mouse Gas6 [2]): 1.1 pM | binding result (Protein S (OriGene)): no binding (tested: 10 nM)
